Results reported in the DeepSol protein solubility set.

Experiment: soluble on expression in E. coli; label from the status in PepcDB or PDB records

Sequence | soluble on expression in E. coli
SLAAGVLPQNEQPYSTLVNNSECVANMKGNLERPTPKYTKVGERLRHVIPGHMACSMACGGRACKYENPARWSEQEQAIKGVYSSWVTDNILAMARPSSELLEKYHIIDQFLSHGIKTIINLQRPGEHASCGNPLEQESGFTYLPEAFMEAGIYFYNFGWKDYGVASLTTILDMVKVMTFALQEGKVAIHCHAGLGRTGVLIACYLVFATRMTADQAIIFVRAKRPNSIQTRGQLLCVREFTQFLTPLRNIFSCCDPKAHAVTLPQYLIRQRHLLHGYEARLLKHVPKIIHLVCKLLLDLAE | soluble
SLAFVCLAIGCLYTFLISTTFGCTSSSDTEIKVNPPQDFEIVDPGYLGYMYLQWQPPLSLDHFKECTVEYELKYRNIGSETWKTIITKNLHYKDGFDLNKGIEAKIHTMLPWQCTNGSEVQSSWAETTYWIS | soluble
SLCGEPGCRHEQTAVKAGRSRNWAGSFAKTPGRLFGVGFIRLYQLTLSGFVGNSCRHIPTCSEYGYEAIARHGLWAGGWMALFRVARCGPGGTSGLDPVPEELDGSKRWWTPWRYWSRHR | soluble
SLDSPADNPVDSTASDRPVEGRDRDDEGRARNARPRDGLGRPLPYGANGVPRQPEGVVRAPEATVAEAQRLLDDGKPFHAHEVFEDAWKAGPEEERELWRGMAQLAVGLTHSARGNATGGARLLRRGAGAVTAWAASEAGRERPYGMDLGAVAGWARELAGEVEGGGSVDAAARAPRLRG | not soluble
SLEKHSWYHGPVSRNAAEYLLSSGINGSFLVRESESSPGQRSISLRYEGRVYHYRINTASDGKLYVSSESRFNTLAELVHHHSTVADGLITTLHYPAPKRNKPTVYGVSPNY | soluble
SLFQNFINKFVGEKQMDLIKDCNTFLAFVTDKEQTKKKLYKNNMCKNRFCPMCAWRRARKDALGLSLMMQYIKQEEKKEFIFLTLTTPNVKAEELEDEIKKYNLSFGKLVKRKNVKAMMKGYVRKLEITYNKQRDDFNPHFHVLIAVNKSYFKDSKVYISQKEWLEMWRDVTGMPEITQVHVQKIKQNNNKELYEMAKYSGKDSDYLINQKIFDAYYKSLKGKQILVYSGLFKEARKKLKNGELDYLKEIDPTEYLYQIYYIWNQKEYLASELHELTEEEKRKINHQTINEIEEEK | soluble
SLGELPPAPSDSKRTVFLDIDETLVHVTPYPLPFVKPDATFLLQEHRRPSDPPGVSPEYLPGVSAGAAPRAALLHVYYRPFLMPFLENLLQTNRCELVAFTAALREYADPILDGIETKLGGARGSVFAARLYRQHCARAPRSKDLVHAAPSRCLSRCVLLDNSVVSLAAQLANGLLLRPFYGDPQDRELEGVLAFLLDLLEKTGDIRESMKESGMLHKVT | soluble
SLGWIKRLIRMVFQQVGVSMQSVLWSRKPYGSSRSIVRKIGTNLSLIQCPRVQFQINSHATEWSPSHPGEDAVASFADVGWVAKEEGECSARLRTEVRSRPPLQDDLLFFEKAPSRQISLPDLSQEEPQLKTPARANEEALQKICALENELAALRAQIAKIVTQQEQQNLTAGDLDSTTFGTIPPHPPPPPPPLPPPALGLHQSTSAVDLIKERREKRANAGKTLVKNNPKKPEMPNMLEILKEMNSVKLRSVKRSEQDVKPKPVDATDPAALIAEALKKKFAYRYRSDSQDEVEKGIPKSESEATSERVLFGPHMLKPTGKMKALIENVSDS | not soluble
SLHEFGITQNIVAIVTEHAKGAKVQRVLLEIGKLSAIMPDAIRFCFDICTQGTVLEGATLEILEIPGLGRCRQCGGEIYLDKPFGICNCGSVQLDLITGEELKIKEIEIEELCV | soluble
SLHRLNKKAGDYGEKAAEIYLKKSGYTILNRNFRCFLGEVDIIAKNKDYITFVEVKSRWSDTYGLPCEAVNYRKKLKIYRTAKYYIASKSLINYNFRFDVIEVILNHQNDSYDLKFIENAFQI | soluble
SLINNLSTHSYWPNRGQLEVQGLTVKYTEAGRAVLNDISFSVDGGQSVGLLGRTGSGKSTLLSALLGLNYTEGEMFIDGVSSSSMPLQAWRKAFGVVPQKVFILTGTFRMNLDPYGRYSDDELWRVAEEVGLKSVIEQFPDKLDFELKDGGSVLSNGHKQLMCLARSILSKARILLLDEPSSYLDPITLQVLRKTLKQSFSGCTVILSEAKVEPLLECDSFLMIEKSSVKSYDSIQKLMNEMSHLKQAISPAD | soluble
SLKCLVLTGISRNVIEELMRRNIRTIELRSAHNVATALKAEPGDCVFLTPARINDLGRGVSGLVAEVRGKEVMSQSLFYQSPSYIEESELTVVRLMLKPKSLGRLVQVKRGAFLETIEGDVVEMSYFDAR | soluble
SLKDELANIPGIQFVDHVAIAVKQGDLEGQVAAYKMLGFTEVHREDVLGGDQVREVLLRIGDGPNLIQLLEPLNASSPVQKLIEKNGGRGGFAHVAFRVRNARESFDAMTAQGFHIIDKAPRKGSRGTTVFFVHPKSLDSAPFGFLIEIVEEPVEG | soluble
SLKGSSAQVLVVEGEQGLNNDLSHSLEANGYLVTQCFNGKALQKEGLDDQLDLIILGATSESTEADLIQSIVMLREAVSTPIMLLGQKDCVESRIAFYTAGVDDYLTKPVNFSEFLIRVAVILKRVCSDSQMPKHADLLSGLDFEMDKRKGCIRSDEVELLLTPVEFKLLWALVSSGGRVLTKAFLYRNVLNRDFVQHDRSVDVHISRLRAKLSGVGVDTSRLETVHGEGYCYKEG | soluble
SLKITDVQLTAIGMPRLTGFVNKHVIVQLFTDEGIEGIGEMSDFSHLPKYAVDIVDLERTLKQILVGKNPFDIAPINTELNGNFPEAMYYYEKGSFIRNGVDTALYDLCAKALGVSVSDLLGGRQREKIKVCFPIFRHRFMDEVEANLELVKKQYEKGFDVFRLYVGKNVDADEAFLAGVYNEFGGKVKVKSLDFSHLLDWKEALRITRRLAKYPIDLVESPALRNDFAGLHHFRMRCELPVSEHVWSLRQQSEMIKHDSVDIFNIAPVFIGGITQARKAADAAAVAEKSVLIGTTQELSIGTTAMAYFGSTLDHLNYISDPTGPELYVGDVVKNKVNYENGYLHLPERSTIGLGMELDWEKVEQYRVESLNWEDVSVHQLQDRTAQTRA | not soluble
SLKNSESHGEADGGLRERKKRETKKRLTEKGIALFLERGFDNTTLDEIASAAGISRRTFFYYFKSKDEILLSLQSGIGEMLADAVRRAPSSSTPIEVVRDAAIGVCKVIPTNDMIEMDRLMRTSPSVQARKQVSYVQQEGEIYEALSERWPEPERSTALRVVAMLSVGAMRIAGDIFSQEKGVRPMVDLLEEAFGSLIQEVRSGDPRV | soluble
SLLLVIDVGNTNTVLGVYHDGKLEYHWRIETSRHKTEDEFGMILRSLFDHSGLMFEQIDGIIISSVVPPIMFALERMCTKYFHIEPQIVGPGMKTGLNIKYDNPKEVGADRIVNAVAAIHLYGNPLIVVDFGTATTYCYIDENKQYMGGAIAPGITISTEALYSRAAKLPRIEITRPDNIIGKNTVSAMQSGILFGYVGQVEGIVKRMKWQAKQKQKVIATGGLAPLIANESDCIDIVDPFLTLKGLELIYERNRVGSV | soluble
SLQHAPLNFVPDAAKVPPTPGQSPNARWSREAIEALFALPFNDLLFQAQQVHRAHFDANAVQLSTLLSIKTGGCPEDCSYCPQSARYDTGVEAEKLMPIDTVLEAAARAKQNGASRFCMGAAWRNPKPHQLDAVADMVRGVKAMGLETCVTLGMLKQEQAQQLKDAGLDYYNHNLDTAPEFYGEIITTRTYQDRLDTLEHVRDAGINVCCGGIVGLGESRHERAGLVAELANMEPYPDSVPINNLVKVEGTPLAGNEALDPFEFVRTIAVARITMPKAMVRLSAGREAMDDALQALCFMAGANSIFYGEKLLTTDNPEADADRKLLARLGMRVEVQDHLHQAEGAQHSHSSHCHIDITPADEG | soluble
SLQWECWPSLPCWRCFAASGRITLSIKRFTQNSRRHDMKITKINAIPLSYRLPEGKTVTMGVGSTIKRDAIIIRVETSEGITGYGEAHPGRSPGAITSLIHNTIAPMLIGMKATDCVGAWQRVHRMQLSSHGLGAGAALAISGIDMALWDIRGKAANMPLYELLGGSKRRIPAYAGGIALGYQPKESLAEEAQEYIARGYKALKLRIGDAARVDIERVRHVRKVLGDEVDILTDANTAYTMADARRVLPVLAEIQAGWLEEPFACNDFASYREVAKITPLVPIAAGENHYTRFEFGQMLDAGAVQVWQPDLSKCGGITEGIRIAAMASAYRIPINAHSSATGLNHAATIHFLAATENAGYFEACVSKFNPFRDMFGTSFEIGADGCVEPPDAPGLGIEVDESIFEKYPAVDGPGYVVKF | not soluble
SLRAEKSDDPLYPLTIIHLNDFHARFEETNTVSTRCKPDEGERCIGGYGRVVSRVKSLQQEYADRNPIYLNAGDSFQGTIWYTLLRWNVTAYFLNLLPADAMTLGNHEFDHGVEGLVPFLGAIDSPMLVANIDDREEPTLQGKYQRNVVLERGGRKIGIIGVIHHATDTLSMTDRVRFLDEVQCINQEATALKQLGVDIIVVLSHCGFTIDQQIARECPDVDVVVGGHSHTLLHTGTVADWPDVPAGSFPFVVEQAAGRRVLIVQAGSFTKYLGHLVVYFDERGEAVRWEGNTEYLDESFPKDEQIERELVPWRTQVDALAVRPVGVSRVFLSKPACRTGECNFGSFVADAFVDYYVGRGEAEHEWTYAAIGITNDGGLRTSLAPGTLTYEDLVTAIPYENTVDTFELRGQYLLDALEYSASRYDTADVLQFAGLRVVFNLTRPALQRVQRVDVRCRVCRIPRYEPLDVNATYRIAIAAWIGSGGNGYTMFGQHRTNVRVGPLDIDVFERYVAKMSPIMQGTDGRMVFVR | not soluble
SLRASDDKALQYAIAEITEIATGFGLDFYPMRYEICPAEIIYTFGAYGMPTRFSHWSFGKQFFRMKLQYDLGLSKIYELVINSDPCYAFLLDTNSLIQNKLIVAHVLAHCDFFKNNIRFSNTKRDMVESMSATAERVKAYEHKYGKEEVETFLDAVLAIQEHIDPSLMRPKLAWSIDDLEEEEVEKKKVSQYDDLWNLDNRNKKRERSNVRKKKKIPPQPEKDLLLFIEEYSRELEDWQRDILTMMREEMLYFWPQLETKIMNEGWASYY | soluble
SLRKIANSITEPIEQLVTAMKSVQHSGIEAGVSLSLPEHTQDEAGMLNRHFTVMMKRINELMEENVEKQLIIKETELKALQAQINPHFLYNTLESINWLAKANQQKQISKMVESLGFLLRNSIHMKKDIVTIQEEADIVRHYMTIQRFRFEERLKFTLDIDDEVKHCLIPKLTLQPLAENAIQYALEPFTRPCAIRIQAKKAKGCVCITVEDNGPGMDGRILESTGGRGIGLWNIRERISLTFGEPYGLRIHSEHEKGTRIVITIPCRNEVV | soluble
SLRSIMTPRGEISWVDAEQSEDEIRRQLLSSPHSLFPVCRGELDEIIGIVRAKEMLVALESGENVAALASASPAIVVPETLDPINLLGVLRRARGSFVIVTNEFGVVQGLVTPLDVLEAIAGEFPDADETPEIVIDGDGWLIKGSTDLHALQQALGLDPLINDDEDIATVAGLVISANGHIPRIGDVVSLPPLHFTVVEANDYRVDLVRAVVTRPPSDEEE | not soluble
SLSPRRLRLLLVDENPTARAVIGRRLSHRHYDVTVVEDGFAAQKTLIIQPSDIILIDMDLQLLPAIGTMEKIRAAHPAGHACIVMIGGASDTPKMIAALDAGADDHIVKPFDFDMLDARLRRVHARAERVNLLSRQYAELDARIARRAMELGETRETLRQVELDRARLMASVDHLQAEVARLSAREG | soluble
SLTPLRVLIVEDDPRIAQLHQRFCEKVAGFEVSGLAATYEEADELATILEPDLLLLDLYLPDGNGMDLLRQLRSRGQEVDVVLITAAKDVAAVQQALRAGAFDYIVKPAVFARFEEALTKFAAYRQQLEQGDVLNQNDIDQLLHSHHQPKVMDRGAVPKGIDPLTLTKIRQVFADQEQQGLSAEEVGAQIGASRSTARRYLEYMVSISELTADVVYGTVGRPERRYFSFENEG | soluble
